Measurements published in patent US7183387 (Genentech, dated 2007).
Blank lines part the entries; values can stand above or below the binder they belong to.

What was measured:
Test in all cases: ELISA, IgG:IgE hexamers on receptor-GST
[1] = biological target: T1, human FcγRIIIA-F158 α subunit extracellular domain-6His-GST fusion (human, UniProt P08637 17-208)
T1 construct: also called FcγRIIIA-Phe158; not shown: glutathione S-transferase (GST)

[2] = biological target: T2, human FcγRIIA-R131 α subunit extracellular domain-6His-GST fusion (human, UniProt P12318 34-217)
T2 construct: also called FcγRIIA-Arg131; not shown: glutathione S-transferase (GST)
T2 sequence: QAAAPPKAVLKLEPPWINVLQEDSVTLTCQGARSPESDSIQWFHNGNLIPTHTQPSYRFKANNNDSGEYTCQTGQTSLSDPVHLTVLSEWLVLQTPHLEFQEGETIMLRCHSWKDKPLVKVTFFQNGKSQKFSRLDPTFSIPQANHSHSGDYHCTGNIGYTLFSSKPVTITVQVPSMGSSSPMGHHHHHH

[3] = biological target: T3, human FcγRIIB α subunit extracellular domain-6His-GST fusion (human, UniProt P31994 43-217)
T3 construct: not shown: glutathione S-transferase (GST)
T3 sequence: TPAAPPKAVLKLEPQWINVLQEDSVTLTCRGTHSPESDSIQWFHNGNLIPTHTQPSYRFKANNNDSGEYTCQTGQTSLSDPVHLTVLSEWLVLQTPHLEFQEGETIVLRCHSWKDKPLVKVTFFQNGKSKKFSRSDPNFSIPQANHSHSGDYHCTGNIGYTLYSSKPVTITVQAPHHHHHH

T1 sequence (P08637 other isoform, or with tags, fused parts or gaps, form in doubt): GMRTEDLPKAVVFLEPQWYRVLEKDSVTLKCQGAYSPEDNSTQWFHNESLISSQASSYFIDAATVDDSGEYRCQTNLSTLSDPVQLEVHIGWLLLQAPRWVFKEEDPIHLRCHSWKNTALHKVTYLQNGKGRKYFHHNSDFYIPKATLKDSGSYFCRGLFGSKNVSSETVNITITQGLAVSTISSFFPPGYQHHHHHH

B1: E27 IgG1 variant K334(353)G (antibody)
heavy: not shown
light: DIQLTQSPSSLSASVGDRVTITCRASKPVDGEGDSYLNWYQQKPGKAPKLLIYAASYLESGVPSRFSGSGSGTDFTLTISSLQPEDFATYYCQQSHEDPYTFGQGTKVEIKRTVAAPSVFIFPPSDEQLKSGTASVVCLLNNFYPREAKVQWKVDNALQSGNSQESVTEQDSKDSTYSLSSTLTLSKADYEKHKVYACEVTHQGLSSPVTKSFNRGEC
notes: also called IG2 179
ratio to native IgG1 [1]: 0.88 | ratio to native IgG1 [2]: 0.76 | ratio to native IgG1 [3]: 0.6

B2: E27 IgG1 variant A327(346)G (antibody)
heavy: not shown
light: B1 light
ratio to native IgG1 [1]: 0.36 | ratio to native IgG1 [2]: 0.92 | ratio to native IgG1 [3]: 0.83

B4: E27 IgG1 variant E269(282)D (antibody)
heavy: not shown
light: B1 light
ratio to native IgG1 [1]: 1.13 | ratio to native IgG1 [2]: 0.89 | ratio to native IgG1 [3]: 0.73

B6: E27 IgG1 variant D249(262)E (antibody)
heavy: not shown
light: B1 light
notes: also called IG2 222
ratio to native IgG1 [1]: 0.84 | ratio to native IgG1 [2]: 0.97 | ratio to native IgG1 [3]: 0.99

B7: E27 IgG1 variant E283(300)D (antibody)
heavy: not shown
light: B1 light
ratio to native IgG1 [1]: 0.95 | ratio to native IgG1 [2]: 1.14 | ratio to native IgG1 [3]: 1.23

B8: E27 IgG1 variant E269(282)Q (antibody)
heavy: not shown
light: B1 light
notes: also called IG2 169
ratio to native IgG1 [1]: 0.28 | ratio to native IgG1 [2]: 0.08 | ratio to native IgG1 [3]: 0.16

B17: E27 IgG1 variant A330(349)K (antibody)
heavy: not shown
light: B1 light
notes: also called IG2 197
ratio to native IgG1 [1]: 1.28 | ratio to native IgG1 [2]: 1.28 | ratio to native IgG1 [3]: 1.25

B18: E27 IgG1 variant E272(285)Q (antibody)
heavy: not shown
light: B1 light
notes: also called IG2 223
ratio to native IgG1 [1]: 0.82 | ratio to native IgG1 [2]: 1.93 | ratio to native IgG1 [3]: 1.81

B19: E27 IgG1 variant E272(285)N (antibody)
heavy: not shown
light: B1 light
notes: also called IG2 224
ratio to native IgG1 [1]: 0.5 | ratio to native IgG1 [2]: 0.43 | ratio to native IgG1 [3]: 0.23

B20: E27 IgG1 variant D270(283)E (antibody)
heavy: not shown
light: B1 light
notes: also called IG2 93
ratio to native IgG1 [1]: 0.9 | ratio to native IgG1 [2]: 0.08 | ratio to native IgG1 [3]: 0.06

B21: E27 IgG1 variant D280(295)S (antibody)
heavy: not shown
light: B1 light
ratio to native IgG1 [1]: 1.09 | ratio to native IgG1 [2]: 1.07 | ratio to native IgG1 [3]: 1.04

B22: E27 IgG1 variant D280(295)N (antibody)
heavy: not shown
light: B1 light
notes: also called IG2 79
ratio to native IgG1 [1]: 1.16 | ratio to native IgG1 [2]: 1.07 | ratio to native IgG1 [3]: 1.22

B25: E27 IgG1 variant D270(283)N (antibody)
heavy: not shown
light: B1 light
notes: also called IG2 92
ratio to native IgG1 [1]: 0.04 | ratio to native IgG1 [2]: 0.03 | ratio to native IgG1 [3]: 0.05

B27: E27 IgG1 variant D265(278)N (antibody)
heavy: not shown
light: B1 light
ratio to native IgG1 [1]: 0.02 | ratio to native IgG1 [2]: 0.02 | ratio to native IgG1 [3]: 0.03

B29: E27 IgG1 variant A330(349)D (antibody)
heavy: not shown
light: B1 light
ratio to native IgG1 [1]: 0.07 | ratio to native IgG1 [2]: 0.18 | ratio to native IgG1 [3]: 0.08

B30: E27 IgG1 variant D265(278)E (antibody)
heavy: not shown
light: B1 light
notes: also called IG2 158
ratio to native IgG1 [1]: 0.02 | ratio to native IgG1 [2]: 0.11 | ratio to native IgG1 [3]: 0.03

B31: E27 IgG1 variant A327(346)S (antibody)
heavy: not shown
light: B1 light
ratio to native IgG1 [1]: 0.06 | ratio to native IgG1 [2]: 0.23 | ratio to native IgG1 [3]: 0.22

The next lines start with the values.

ratio to native IgG1 [1]: 0.99 | ratio to native IgG1 [2]: 0.85 | ratio to native IgG1 [3]: 0.77
B3: E27 IgG1 variant E293(310)Q (antibody)
heavy: not shown
light: B1 light

ratio to native IgG1 [1]: 0.72 | ratio to native IgG1 [2]: 1.13 | ratio to native IgG1 [3]: 1.31
B5: E27 IgG1 variant E293(310)K (antibody)
heavy: not shown
light: B1 light

ratio to native IgG1 [1]: 1.26
B9: E27 IgG1 variant E333(352)D (antibody)
heavy: not shown
light: B1 light

ratio to native IgG1 [1]: 0.14 | ratio to native IgG1 [2]: 0.37 | ratio to native IgG1 [3]: 0.26
B10: E27 IgG1 variant E294(311)D (antibody)
heavy: not shown
light: B1 light
notes: also called IG2 174

ratio to native IgG1 [1]: 0.84 | ratio to native IgG1 [2]: 1.01 | ratio to native IgG1 [3]: 0.95
B11: E27 IgG1 variant E294(311)Q (antibody)
heavy: not shown
light: B1 light
notes: also called IG2 173

ratio to native IgG1 [1]: 0.56 | ratio to native IgG1 [2]: 0.59 | ratio to native IgG1 [3]: 0.52
B12: E27 IgG1 variant E333(352)N (antibody)
heavy: not shown
light: B1 light

ratio to native IgG1 [1]: 0.94
B13: E27 IgG1 variant E333(352)S (antibody)
heavy: not shown
light: B1 light
notes: also called IG2 143

ratio to native IgG1 [1]: 0.37 | ratio to native IgG1 [2]: 0.9 | ratio to native IgG1 [3]: 0.88
B14: E27 IgG1 variant E293(310)D (antibody)
heavy: not shown
light: B1 light

ratio to native IgG1 [2]: 0.42 | ratio to native IgG1 [3]: 0.45
B15: E27 IgG1 variant S267(280)T (antibody)
heavy: not shown
light: B1 light

ratio to native IgG1 [1]: 0.72 | ratio to native IgG1 [2]: 1.03 | ratio to native IgG1 [3]: 1.08
B16: E27 IgG1 variant E318(337)K (antibody)
heavy: not shown
light: B1 light

ratio to native IgG1 [1]: 0.85 | ratio to native IgG1 [2]: 1.03 | ratio to native IgG1 [3]: 1.07
B23: E27 IgG1 variant E283(300)S (antibody)
heavy: not shown
light: B1 light
notes: also called IG2 227

ratio to native IgG1 [1]: 1.05 | ratio to native IgG1 [2]: 0.87 | ratio to native IgG1 [3]: 0.76
B24: E27 IgG1 variant E333(352)G (antibody)
heavy: not shown
light: B1 light
notes: also called IG2 178

ratio to native IgG1 [1]: 1.19 | ratio to native IgG1 [2]: 1.12 | ratio to native IgG1 [3]: 1.24
B26: E27 IgG1 variant E283(300)Q (antibody)
heavy: not shown
light: B1 light
notes: also called IG2 226

ratio to native IgG1 [1]: 0.85
B28: E27 IgG1 variant E333(352)K (antibody)
heavy: not shown
light: B1 light

ratio to native IgG1 [1]: 0.94 | ratio to native IgG1 [2]: 1.18 | ratio to native IgG1 [3]: 1.28
B32: E27 IgG1 variant E283(300)N (antibody)
heavy: not shown
light: B1 light
notes: also called IG2 228
